Substitutions are numbered along the chain they refer to. One block for each binder: values may come before it.
Tests used:
cyno CLDN6 = biological target: T1, cyno CLDN6 (cyno); assay: flow cytometry, HEK293T-cyno-CLDN6 cells; ratio to chBG87P
T1 construct: whole, on cells; also called cynomolgus CLDN6

human claudin 6 (CLDN6) [1] = biological target: T2, human claudin 6 (CLDN6) (human, UniProt P56747 1-220); assay: flow cytometry, PA-1 cells; ratio to chBG87P
T2 construct: also called human CLDN6; hCLDN6
T2 sequence: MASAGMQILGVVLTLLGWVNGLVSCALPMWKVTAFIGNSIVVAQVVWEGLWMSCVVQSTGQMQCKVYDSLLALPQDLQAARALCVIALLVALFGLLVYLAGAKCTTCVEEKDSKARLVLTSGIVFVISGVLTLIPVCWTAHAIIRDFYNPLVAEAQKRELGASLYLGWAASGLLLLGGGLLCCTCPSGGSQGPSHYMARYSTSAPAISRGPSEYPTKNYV
Experimental: (§1) For affinity determination, CLDN6 over-expressing HEK293T cells and cancer cell line PA-1 which express high levels of human CLDN6 were used to evaluate the binding activity of BG87P related engineering variants. Live cells were seeded in 96-well plate, and were incubated with a series of dilutions of chBG87P and engineered variants thereof. Goat anti-human IgG was used as second antibody to detect antibody binding to the cell surface. EC50 values for dose-dependent binding to CLDN6 expressing cell lines were determined by fitting the dose-response data to the four-parameter logistic model with GraphPad Prism. Cell binding activity of 1st round of BG87P humanization variants against HEK293T/human CLDN6 were compared to chBG87P and shown in FIG. 1A.

human claudin 6 (CLDN6) [2] = biological target: T2, human claudin 6 (CLDN6); assay: flow cytometry, HEK293-hCLDN6 cells; ratio to chBG87P
human claudin 6 (CLDN6) [3] = biological target: T2, human claudin 6 (CLDN6); assay: flow cytometry, HEK293T-hCLDN6 cells; ratio to chBG87P
human claudin 6 (CLDN6) [4] = biological target: T2, human claudin 6 (CLDN6); assay: flow cytometry, HEK293T-human CLDN6 cells; ratio to chBG87P
Experimental: as §1

human claudin 6 (CLDN6) [5] = biological target: T2, human claudin 6 (CLDN6); assay: flow cytometry, PA-1 cells
Experimental: as §1

FACS Emax ratio to BG87P (cyno CLDN6): 0.8
Emax ratio to BG87P (human claudin 6 (CLDN6) [1]): 0.61
FACS-Ec50 ratio to BG87P (human claudin 6 (CLDN6) [2]): 0.91
FACS Emax ratio to BG87P (human claudin 6 (CLDN6) [3]): 0.66
Emax ratio to BG87P (human claudin 6 (CLDN6) [4]): 0.78
Top MFI Mean (human claudin 6 (CLDN6) [5]): 76500 MFI
B1: BG87P-21 (antibody, V domains shown)
VH: QVQLVQSGAEVKKPGASVKVSCKASGYSFTDYHINWVRQAPGQRLEWMGWIYPGSGYTKYNEKFKGRVTITRDTSASTAYMELSSLRSEDTAVYYCARSGIYHYVSSYYFDHWGKGTTVTVSS
VL: DIQMTQSPSTLSASVGDRVTITCKASQDVGTAVAWYQQKPGKAPKLLIYWASTRHTGVPSRFSGSGSGTEFTLTISSLQPDDFATYYCQQYSSYTFGGGTKVEIK
notes: 2nd round humanized variant

FACS Emax ratio to BG87P (cyno CLDN6): 0.75
FACS-Ec50 ratio to BG87P (human claudin 6 (CLDN6) [2]): 2.45
FACS Emax ratio to BG87P (human claudin 6 (CLDN6) [3]): 0.91
B2: BG87P-33 (antibody, V domains shown)
VH: EVQLQESGGGLVQPGGSLRLSCAASGYSFTDYHINWVRQAPGKGLEWVSYIYPGSGHTKYNEKFKGRFTISRDTSKNTAYLQMNSLRAEDTAVYYCARSGIYHYVSSYYFDHWGQGTLVTVSS
VL: B1 VL with V29A, T31S
notes: Framework-swapped variant; also called BG87-33

FACS-Ec50 ratio to BG87P (human claudin 6 (CLDN6) [2]): 1.6
FACS Emax ratio to BG87P (human claudin 6 (CLDN6) [3]): 0.76
B3: BG87P-31 (antibody, V domains shown)
VH: B1 VH with V5Q, V11T, P41S, W50Y, Y57H, Y60K
VL: B1 VL with V29A, T31S, Y49K
notes: Solubility engineering variant of BG87P-21

FACS-Ec50 ratio to BG87P (human claudin 6 (CLDN6) [2]): 1.31
FACS Emax ratio to BG87P (human claudin 6 (CLDN6) [3]): 0.63
B4: BG87P-32 (antibody, V domains shown)
VH: B1 VH with V5Q, V11T, P41S, W50Y, Y57H, Y60K
VL: B1 VL with V29A, T31S
notes: as for B3

Emax ratio to BG87P (human claudin 6 (CLDN6) [1]): 0.53
Emax ratio to BG87P (human claudin 6 (CLDN6) [4]): 0.68
B5: BG87P-27 (antibody, V domains shown)
VH: B1 VH with I70L, Y95F
VL: B1 VL

Emax ratio to BG87P (human claudin 6 (CLDN6) [1]): 0.54
Emax ratio to BG87P (human claudin 6 (CLDN6) [4]): 0.71
Top MFI Mean (human claudin 6 (CLDN6) [5]): 67800 MFI
B6: BG87P-22 (antibody, V domains shown)
VH: B1 VH with Y95F
VL: B1 VL

Emax ratio to BG87P (human claudin 6 (CLDN6) [1]): 0.54
Emax ratio to BG87P (human claudin 6 (CLDN6) [4]): 0.77
B7: BG87P-26 (antibody, V domains shown)
VH: B1 VH with V2I, Y95F
VL: B1 VL

Emax ratio to BG87P (human claudin 6 (CLDN6) [1]): 0.59
Emax ratio to BG87P (human claudin 6 (CLDN6) [4]): 0.74
B8: BG87P-25 (antibody, V domains shown)
VH: B1 VH with V2I, I70L
VL: B1 VL

FACS Emax ratio to BG87P (cyno CLDN6): 1
FACS-Ec50 ratio to BG87P (human claudin 6 (CLDN6) [2]): 1.17
FACS Emax ratio to BG87P (human claudin 6 (CLDN6) [3]): 1.03
B9: BG87P-34 (antibody, V domains shown)
VH: B2 VH with T30S, S49G, K76S
VL: B1 VL with T10S, V29A, T31S, E70D, D81E, V102L
notes: Final lead anti-CLDN6 clone (IGHV3-23 / IGKV1-39 framework); also called BG87-34

Emax ratio to BG87P (human claudin 6 (CLDN6) [1]): 0.43
Emax ratio to BG87P (human claudin 6 (CLDN6) [4]): 0.5
B10: BG87P-z0 (antibody, V domains shown)
VH: B1 VH with S28T, G66V
VL: B1 VL
notes: Humanized, no back mutations; also called BG87P-20

FACS Emax ratio to BG87P (cyno CLDN6): 1
Emax ratio to BG87P (human claudin 6 (CLDN6) [1]): 1
FACS-Ec50 ratio to BG87P (human claudin 6 (CLDN6) [2]): 1
FACS Emax ratio to BG87P (human claudin 6 (CLDN6) [3]): 1
Emax ratio to BG87P (human claudin 6 (CLDN6) [4]): 1
B11: anti-CLDN6 chimeric BG87P (antibody, V domains shown)
VH: QIQLQQSGPELVKPGASVKISCKASGYSFTDYHINWVKQRPGQGLEWIGWIYPGSGYTKYNEKFKVKATLTVDTSSSTAYMHLTSLTSEDSAVYFCARSGIYHYVSSYYFDHWGQGTTLTVSS
VL: DIVMTQSHTFMSTSVGDRVSITCKASQDVGTAVAWYQQKPGQSPKLLIYWASTRHTGVPDRFTGSGSGTDFTLTISNVQSEDLADYFCQQYSSYTFGGGTKLEIK
notes: expressed in HEK293T; also called chBG87P; ChBG87P

Source: US20240301061A1 (BEIGENE SWITZERLAND, published 2024)
